The results in this text go back to patent publication EP4775675A1.

In assay [1] the target is cynomolgus monkey BDCA-2 on cells (Jurkat-cynoBDCA-2 cells; cynomolgus monkey pDCs) (cynomolgus monkey). Kind of assay: flow cytometry on Jurkat-cynoBDCA-2 cells.
For assay [2], the target named is human BDCA-2 on cells (Jurkat-hBDCA-2 cells; human pDCs; human PBMCs) (human) (UniProt Q8WTT0). As to the kind of experiment: flow cytometry on Jurkat-hBDCA-2 cells.
human BDCA-2 on cells (Jurkat-hBDCA-2 cells; human pDCs; human PBMCs) (human), sequence (Q8WTT0 whole entry): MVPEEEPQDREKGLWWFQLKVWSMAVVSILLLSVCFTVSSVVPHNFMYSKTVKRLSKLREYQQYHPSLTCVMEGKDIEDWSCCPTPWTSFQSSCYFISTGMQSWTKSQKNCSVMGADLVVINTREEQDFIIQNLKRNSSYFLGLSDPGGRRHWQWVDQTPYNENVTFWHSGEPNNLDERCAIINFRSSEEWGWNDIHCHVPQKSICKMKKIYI

cynomolgus monkey BDCA-2 on cells (Jurkat-cynoBDCA-2 cells; cynomolgus monkey pDCs) (cynomolgus monkey), sequence (chain, as listed by the source): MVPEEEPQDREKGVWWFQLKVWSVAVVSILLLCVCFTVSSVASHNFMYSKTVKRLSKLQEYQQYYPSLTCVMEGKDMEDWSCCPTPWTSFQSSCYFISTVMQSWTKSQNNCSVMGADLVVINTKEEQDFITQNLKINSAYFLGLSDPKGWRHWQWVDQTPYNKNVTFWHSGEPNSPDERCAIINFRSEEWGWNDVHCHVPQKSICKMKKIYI

As to Isotype control (antibody), the MFI in assay [1] stood at 67.3; in assay [2] it was 17.5.
